Reference: patent publication US20260234245A1 (ELTHERA, published 2026)

Target: T1, soluble His-tagged human L1CAM (extracellular portion, amino acids 20 to 1120) (human, UniProt P32004 20-1120)
T1 construct: range 20-1120; Expressed in HEK cells with an N-terminal leader peptide for secretion (not part of the assayed protein)
Experiment: SPR (Biacore T200), antibody captured on Protein A chip, His-tagged human L1CAM as analyte 5, 10, 20, 40 nM, 1:1 Langmuir fit
Experimental: (§1) Monovalent kinetic binding constants of the eight humanized antibody variants towards human L1CAM were determined by surface plasmon resonance using a Biacore T200 instrument. Antibodies were captured via their Fc regions on a C1 Protein A Chip (GE Healthcare), and soluble His-tagged human L1CAM was injected as analyte in 3 different concentrations (10, 20 and 40 nM), using 10 mM HEPES/150 mM NaCl/3 mM EDTA/0.05% Tween 20 as running buffer. Detected resonance units (sensorgrams) were fitted to a 1:1 Langmuir binding model and association (kₐ) and dissociation (kd) rate constants as well as the affinity constants (KD) were calculated.
The monovalent kinetic binding constants towards human L1CAM were determined by surface plasmon resonance using a Biacore T200 instrument as described in Example 4, except that soluble His-tagged human L1CAM was injected in 4 different concentrations (5, 10, 20 and 40 nM).

T1 sequence (P32004 other isoform, or with tags, fused parts or gaps limits assumed): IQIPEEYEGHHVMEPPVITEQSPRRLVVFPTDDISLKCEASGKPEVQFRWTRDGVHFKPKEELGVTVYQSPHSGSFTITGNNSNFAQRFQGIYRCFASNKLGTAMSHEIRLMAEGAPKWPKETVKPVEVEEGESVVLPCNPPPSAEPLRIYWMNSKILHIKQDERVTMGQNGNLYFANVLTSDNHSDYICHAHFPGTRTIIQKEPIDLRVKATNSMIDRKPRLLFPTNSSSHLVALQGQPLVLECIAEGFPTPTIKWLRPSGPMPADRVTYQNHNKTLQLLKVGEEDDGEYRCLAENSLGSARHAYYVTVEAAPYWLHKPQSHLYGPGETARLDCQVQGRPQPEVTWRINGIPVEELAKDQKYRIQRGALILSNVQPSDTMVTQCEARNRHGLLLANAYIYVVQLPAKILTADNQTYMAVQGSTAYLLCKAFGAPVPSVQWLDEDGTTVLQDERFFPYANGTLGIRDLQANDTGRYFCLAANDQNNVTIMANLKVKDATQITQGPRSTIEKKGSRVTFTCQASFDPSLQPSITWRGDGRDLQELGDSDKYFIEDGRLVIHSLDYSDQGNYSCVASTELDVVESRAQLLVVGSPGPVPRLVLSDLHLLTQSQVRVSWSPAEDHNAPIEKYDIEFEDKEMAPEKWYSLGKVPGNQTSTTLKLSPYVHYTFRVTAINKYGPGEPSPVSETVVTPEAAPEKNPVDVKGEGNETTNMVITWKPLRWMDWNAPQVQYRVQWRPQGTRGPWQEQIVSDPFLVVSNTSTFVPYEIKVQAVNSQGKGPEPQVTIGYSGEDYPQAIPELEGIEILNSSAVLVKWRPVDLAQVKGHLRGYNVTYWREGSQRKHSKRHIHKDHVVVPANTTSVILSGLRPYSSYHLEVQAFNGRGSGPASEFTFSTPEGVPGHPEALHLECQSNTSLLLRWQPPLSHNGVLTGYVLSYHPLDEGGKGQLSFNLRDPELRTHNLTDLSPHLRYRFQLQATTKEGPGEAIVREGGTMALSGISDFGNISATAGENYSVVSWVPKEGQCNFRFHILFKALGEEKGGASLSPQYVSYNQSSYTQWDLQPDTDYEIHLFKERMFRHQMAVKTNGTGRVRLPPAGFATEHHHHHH

Binder | Kd | koff | kon
AFF9 (antibody, human IgG1, V domains shown) VH: QVQLQESGPGLVKPSQTLSLTCTVTGYSITSDYAWNWIRQFPGKGLEWMGYISYSGSYSYNPSLKSRVTISRDTSKNQFSLKLSSVTAADTAVYYCARSFSYAYGFAYWGQGTLVTVSS VL: DIQMTQSPSSLSASVGDRVTITCKASQDVSSAVAWYQQKPGKAPKLLIYSASYRYTGVPSRFSGSGSGTDFTFTISSLQPEDFATYYCQQHYSTPWTFGGGTKVEIK | 0.36 nM | 9.28e-05 s⁻¹ | 258000 M⁻¹ s⁻¹
AFF10 (antibody, human IgG1, V domains shown) VH: QVQLQESGPGLVKPSQTLSLTCTVTGYSITSDYTWNWIRQFPGKGLEWMGYISYSGSYSYHPSLKSRVTISRDTSKNQFSLKLSSVTAADTAVYYCARSFSYGYGFAYWGQGTLVTVSS VL: DIQMTQSPSSLSASVGDRVTITCKASQDVSSAVAWYQQKPGKAPKLLIYSASYRYTGVPSRFSGSGSGTDFTFTISSLQPEDFATYYCQQHYSTPWTFGGGTKVEIK | 0.99 nM | 0.000251 s⁻¹ | 255000 M⁻¹ s⁻¹
AFF3 (antibody, human IgG1, V domains shown) VH: QVQLQESGPGLVKPSQTLSLTCTVTGYSITSDYAWNWIRQFPGKGLEWMGYISYSGSYSYNPSLKSRVTISRDTSKNQFSLKLSSVTAADTAVYYCARSFSYSYGFAYWGQGTLVTVSS VL: DIQMTQSPSSLSASVGDRVTITCKASQDVSSAVAWYQQKPGKAPKLLIYSASYRYTGVPSRFSGSGSGTDFTFTISSLQPEDFATYYCQQHYSTPWTFGGGTKVEIK | 0.22 nM | 6.52e-05 s⁻¹ | 299000 M⁻¹ s⁻¹
AFF1 (antibody, human IgG1, V domains shown) VH: QVQLQESGPGLVKPSQTLSLTCTVTGYSITSDYAWNWIRQFPGKGLEWMGYISYSGSFSYNPSLKSRVTISRDTSKNQFSLKLSSVTAADTAVYYCARSFSYSYGFAYWGQGTLVTVSS VL: DIQMTQSPSSLSASVGDRVTITCKASQDVSSAVAWYQQKPGKAPKLLIYSASYRYTGVPSRFSGSGSGTDFTFTISSLQPEDFATYYCQQHYSTPWTFGGGTKVEIK | 0.36 nM | 0.000104 s⁻¹ | 290000 M⁻¹ s⁻¹
AFF8 (antibody, human IgG1, V domains shown) VH: QVQLQESGPGLVKPSQTLSLTCTVTGYSITSDYTWNWIRQFPGKGLEWMGYISYSGSFSYNPSLKSRVTISRDTSKNQFSLKLSSVTAADTAVYYCARSFSYSYGFAYWGQGTLVTVSS VL: DIQMTQSPSSLSASVGDRVTITCKASQDVSSAVAWYQQKPGKAPKLLIYSASYRYIGVPSRFSGSGSGTDFTFTISSLQPEDFATYYCQQHYSTPWTFGGGTKVEIK | 0.3 nM | 0.000116 s⁻¹ | 383000 M⁻¹ s⁻¹
Humanized optimized antibody “AFF4” (human IgG format; with G236A/S239D/A330L/I332E mutations) (antibody, also called AFF4 antibody) heavy: QVQLQESGPGLVKPSQTLSLTCTVTGYSITSDYTWNWIRQFPGKGLEWMGYISYSGSYSYNPSLKSRVTISRDTSKNQFSLKLSSVTAADTAVYYCARSFSYSYGFAYWGQGTLVTVSSASTKGPSVFPLAPSSKSTSGGTAALGCLVKDYFPEPVTVSWNSGALTSGVHTFPAVLQSSGLYSLSSVVTVPSSSLGTQTYICNVNHKPSNTKVDKRVEPKSCDKTHTCPPCPAPELLAGPDVFLFPPKPKDTLMISRTPEVTCVVVDVSHEDPEVKFNWYVDGVEVHNAKTKPREEQYNSTYRVVSVLTVLHQDWLNGKEYKCKVSNKALPLPEEKTISKAKGQPREPQVYTLPPSREEMTKNQVSLTCLVKGFYPSDIAVEWESNGQPENNYKTTPPVLDSDGSFFLYSKLTVDKSRWQQGNVFSCSVMHEALHNHYTQKSLSLSPG light: not shown | 0.2 nM | 8.45e-05 s⁻¹ | 416000 M⁻¹ s⁻¹

Next, values leading:

Kd | koff | kon | Binder
0.31 nM | 0.000126 s⁻¹ | 411000 M⁻¹ s⁻¹ | AFF2 (antibody, human IgG1, V domains shown) VH: QVQLQESGPGLVKPSQTLSLTCTVTGYSITSDYTWNWIRQFPGKGLEWMGYISYSGSFSYNPSLKSRVTISRDTSKNQFSLKLSSVTAADTAVYYCARSFSYSYGFAYWGQGTLVTVSS VL: DIQMTQSPSSLSASVGDRVTITCKASQDVSSAVAWYQQKPGKAPKLLIYSASYRYTGVPSRFSGSGSGTDFTFTISSLQPEDFATYYCQQHYSTPWTFGGGTKVEIK
0.72 nM | 0.000252 s⁻¹ | 349000 M⁻¹ s⁻¹ | AFF5 (antibody, human IgG1, V domains shown) VH: QVQLQESGPGLVKPSQTLSLTCTVTGYSITSDYTWNWIRQFPGKGLEWMGYISYSGSYSYHPSLKSRVTISRDTSKNQFSLKLSSVTAADTAVYYCARSLSYGYGFAYWGQGTLVTVSS VL: DIQMTQSPSSLSASVGDRVTITCKASQDVSSAVAWYQQKPGKAPKLLIYSASYRYTGVPSRFSGSGSGTDFTFTISSLQPEDFATYYCQQHYSTPWTFGGGTKVEIK
0.98 nM | 0.000337 s⁻¹ | 345000 M⁻¹ s⁻¹ | AFF6 (antibody, human IgG1, V domains shown) VH: QVQLQESGPGLVKPSQTLSLTCTVTGYSITSDYTWNWIRQFPGKGLEWMGYISYSGSFSYNPSLKSRVTISRDTSKNQFSLKLSSVTAADTAVYYCARSLSYGYGFAYWGQGTLVTVSS VL: DIQMTQSPSSLSASVGDRVTITCKASQDVSSAVAWYQQKPGKAPKLLIYSASYRYTGVPSRFSGSGSGTDFTFTISSLQPEDFATYYCQQHYSTPWTFGGGTKVEIK
0.32 nM | 8.83e-05 s⁻¹ | 273000 M⁻¹ s⁻¹ | AFF7 (antibody, human IgG1, V domains shown) VH: QVQLQESGPGLVKPSQTLSLTCTVTGYSITSDYAWNWIRQFPGKGLEWMGYISYSGSFSYNPSLKSRVTISRDTSKNQFSLKLSSVTAADTAVYYCARSFSYSYGFAYWGQGTLVTVSS VL: DIQMTQSPSSLSASVGDRVTITCKASQDVSSAVAWYQQKPGKAPKLLIYSASYRYIGVPSRFSGSGSGTDFTFTISSLQPEDFATYYCQQHYSTPWTFGGGTKVEIK

Target: T1, soluble His-tagged human L1CAM …
Experiment: SPR (Biacore T200), antibody captured on C1 Protein A chip, His-tagged human L1CAM as analyte 10, 20, 40 nM, 1:1 Langmuir fit
Experimental: as §1

Binder | Kd | koff | kon
H1L1 (antibody, V domains shown, also called humanized antibody variant H1L1; parental antibody H1L1) VH: QVQLQESGPGLVKPSQTLSLTCTVTGYSITSDYAWNWIRQFPGKGLEWMGYISYSGSFSYHPSLKSRVTISRDTSKNQFSLKLSSVTAADTAVYYCARSFSYGYGFAYWGQGTLVTVSS VL: DIQMTQSPSSLSASVGDRVTITCKASQDVSSAVAWYQQKPGKAPKLLIYSASYRYTGVPSRFSGSGSGTDFTFTISSLQPEDFATYYCQQHYSTPWTFGGGTKVEIK | 4.5 nM | 0.00079 s⁻¹ | 177000 M⁻¹ s⁻¹
H3L1 (antibody, V domains shown, also called humanized antibody variant H3L1) VH: QVQLQESGPGLVKPSQTLSLTCTVTGYSITSDYAWNWIRQFPGNGLEWMGYISYSGSFSYHPSLKSRVTISRDTSKNQFSLKLSSVTAADTAVYYCARSFSYGYGFAYWGQGTLVTVSS VL: DIQMTQSPSSLSASVGDRVTITCKASQDVSSAVAWYQQKPGKAPKLLIYSASYRYTGVPSRFSGSGSGTDFTFTISSLQPEDFATYYCQQHYSTPWTFGGGTKVEIK | 5.1 nM | 0.000858 s⁻¹ | 168000 M⁻¹ s⁻¹
H1L2 (antibody, V domains shown, also called humanized antibody variant H1L2) VH: QVQLQESGPGLVKPSQTLSLTCTVTGYSITSDYAWNWIRQFPGKGLEWMGYISYSGSFSYHPSLKSRVTISRDTSKNQFSLKLSSVTAADTAVYYCARSFSYGYGFAYWGQGTLVTVSS VL: DIVMTQSPSSLSASVGDRVTITCKASQDVSSAVAWYQQKPGQSPKLLIYSASYRYTGVPDRFSGSGSGTDFTFTISSLQPEDFATYYCQQHYSTPWTFGGGTKLEIK | 6.1 nM | 0.000872 s⁻¹ | 144000 M⁻¹ s⁻¹
H2L1 (antibody, V domains shown, also called humanized antibody variant H2L1) VH: QVQLQESGPGLVKPSQTLSLTCTVTGYSITSDYAWNWIRQFPGNGLEWIGYISYSGSFSYHPSLKSRVTISRDTSKNQFSLKLSSVTAADTAVYYCARSFSYGYGFAYWGQGTLVTVSS VL: DIQMTQSPSSLSASVGDRVTITCKASQDVSSAVAWYQQKPGKAPKLLIYSASYRYTGVPSRFSGSGSGTDFTFTISSLQPEDFATYYCQQHYSTPWTFGGGTKVEIK | 4.4 nM | 0.000751 s⁻¹ | 170000 M⁻¹ s⁻¹
H4L1 (antibody, V domains shown, also called humanized antibody variant H4L1) VH: QVQLQESGPGLVKPSQTLSLTCTVTGYSITSDYAWNWIRQFPGNKVEWMGYISYSGSFSYHPSLKSRVTISRDTSKNQFSLKLSSVTAADTAVYYCARSFSYGYGFAYWGQGTLVTVSS VL: DIQMTQSPSSLSASVGDRVTITCKASQDVSSAVAWYQQKPGKAPKLLIYSASYRYTGVPSRFSGSGSGTDFTFTISSLQPEDFATYYCQQHYSTPWTFGGGTKVEIK | 4.7 nM | 0.000847 s⁻¹ | 179000 M⁻¹ s⁻¹

Next, values leading:

Kd | koff | kon | Binder
6.8 nM | 0.000887 s⁻¹ | 131000 M⁻¹ s⁻¹ | H3L2 (antibody, V domains shown, also called humanized antibody variant H3L2) VH: QVQLQESGPGLVKPSQTLSLTCTVTGYSITSDYAWNWIRQFPGNGLEWMGYISYSGSFSYHPSLKSRVTISRDTSKNQFSLKLSSVTAADTAVYYCARSFSYGYGFAYWGQGTLVTVSS VL: DIVMTQSPSSLSASVGDRVTITCKASQDVSSAVAWYQQKPGQSPKLLIYSASYRYTGVPDRFSGSGSGTDFTFTISSLQPEDFATYYCQQHYSTPWTFGGGTKLEIK
6 nM | 0.000867 s⁻¹ | 144000 M⁻¹ s⁻¹ | H2L2 (antibody, V domains shown, also called humanized antibody variant H2L2) VH: QVQLQESGPGLVKPSQTLSLTCTVTGYSITSDYAWNWIRQFPGNGLEWIGYISYSGSFSYHPSLKSRVTISRDTSKNQFSLKLSSVTAADTAVYYCARSFSYGYGFAYWGQGTLVTVSS VL: DIVMTQSPSSLSASVGDRVTITCKASQDVSSAVAWYQQKPGQSPKLLIYSASYRYTGVPDRFSGSGSGTDFTFTISSLQPEDFATYYCQQHYSTPWTFGGGTKLEIK
